Assay results from patent US7189691B2, “Methods and compositions for treating leukemia” (The Administrators of the Tulane Educational Fund, priority 2004, dated 2007).
Ends that are not written are not given here.

Legend:
[1] = molecular target: T1, AF4-AF9 interaction (Homo sapiens, UniProt P42568); assay: Enzyme-linked protein binding assay, GST-AF4(749-775) and biotinylated AF9; conditions: peptide 20 μg/ml; FIG. 2A
T1 construct: made in house; host or cells: GST-AF4 from E. coli; AF9 by coupled in vitro transcription/translation (Promega)
T1 sequence (P42568 211-568): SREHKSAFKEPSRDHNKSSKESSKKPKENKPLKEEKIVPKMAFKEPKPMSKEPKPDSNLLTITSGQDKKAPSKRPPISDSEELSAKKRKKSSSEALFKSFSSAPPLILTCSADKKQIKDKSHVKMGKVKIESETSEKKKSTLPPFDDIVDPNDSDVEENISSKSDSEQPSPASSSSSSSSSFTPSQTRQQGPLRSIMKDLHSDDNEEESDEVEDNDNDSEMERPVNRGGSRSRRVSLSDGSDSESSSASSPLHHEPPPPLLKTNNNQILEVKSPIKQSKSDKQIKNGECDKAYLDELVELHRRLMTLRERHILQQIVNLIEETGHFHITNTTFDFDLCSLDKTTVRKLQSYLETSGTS
Description: Next, an enzyme-linked protein binding assay was developed as a potential high throughput tool to semi-quantitatively assess the ability of various compounds to disrupt the AF4-AF9 interaction in vitro (FIGS. 2A and 2B).
GST-AF4 (749–775) SEQ ID NO: 107 was bound to glutathione-coated 96-well plates and incubated with biotinylated AF9 in conjunction with 20 μg/ml of the following peptides: • (a) Pen-[…], a fusion protein of PENETRATIN™ transporter peptide to the amino terminus of […](SEQ ID NO: 110, PFmut), • (b) Pen-[…], a fusion protein of the transporter protein PENETRATIN™ to the amino terminus of […](SEQ ID NO: 2; or PFWT), • (c) […] or […](SEQ ID NO: 111); • (d) […] or […] (SEQ ID NO: 112); • (e) […] or […](SEQ ID NO: 113), or with • (f) DMSO, or • (g) GST-Cx, a control.
The plate was washed and the retention of AF9 was determined by a colorimetric assay using streptavidin-alkaline phosphatase and pNPP as a substrate. […] At this same peptide concentration, PFmut (a) in col. […] The 10 amino acid peptide (d) in col. 6 is the smallest molecule found to have activity in vitro.

[2] = system: B1 leukemia cell line; assay: MTT viability assay; type: cell-based; conditions: 72 h, differing concentrations
Description: All cell lines were maintained in RPMI 1640+10% FCS. 100 μl aliquots of cell suspension (5×10^5 cells/ml) were cultured in flat-bottomed 96 well plates in the presence of different concentrations of peptides. After 72 h incubation at 37° C. in humidified air containing 5% CO2, viable cell number was determined by MTT assay as follows: 10 μl of 3-[4,5-dimethylthiazol-2-yl]-2,5-diphenyl tetrazolium bromide (MTT) (5 mg/ml concentration) (Sigma) was added to each well and incubated further for 6 h. Formazan crystals that are formed during incubation were dissolved in 100 μl of acidified isopropanol. The optical density at 550 nm (which is linearly related to the number of viable cells) was measured using a plate spectrophotometer. Growth characteristics of the leukemia cell lines were also determined for cells by Trypan Blue exclusion.

Substance	AF9 binding to GST-AF4 (retention of AF9) [1]	cell viability [2]
LWVKIDLDLLSR [(c)]	block AF9 binding	–
Leu-Trp-Val-Lys-Ile-Asp-Leu-Asp-Leu-Leu- (LWVKIDLDLL; structurally based on a fragment of the naturally occuring human and murine AF4 protein family members) [(d)]	block AF9 binding	–
Lys-Lys-Lys-Lys-Lys-Lys-Arg-Lys-Val-Leu-Ile-Val-Arg-Ile-Asp-Leu-Asp-Leu-Leu-Ser- (KKKKKKRKVLIVRIDLDLLS; structurally based on a fragment of the naturally occuring human and murine AF4 protein family members) [SPK4]	–	inhibits
WVKIDLDL [(e)]	did not interfere with AF9 binding	–
